Measurements from patent US7537764.

B1: SC04-299 (scFv)
scFv: EVQLVETGGGVVQPGRSLRLSCAASGFTFSGYAMHWVRQAPGKGLDWVAVISYDGSEKYSADSVKGRFTISRDNSKNTLYLQMNSLRAEDTAVYYCAKESGGPIWYKYYGVDVWGQGTTVTVSSGTGGSGGTGSGTGGSTSYVLTQPPSLSAAPRQRVTISCSGSSSNIGNYGVNWYQQLPGKAPKLLIYYDDLLPSGVSDRFSGSKSGTSASLAISGLQSEDEGDYYCAAWDDTLSAWVFGGGTKLTVLG
B2: SC04-311 (scFv)
scFv: EVQLVQSGGGVVQPGRSLRLSCVASGFTFSKDAMHWVRQAPGKGLEWVAVISYDGSDKHYADSVKGRVTISRDNSRKTLYLRMDSLRAEDTALYYCARGYNSGHYFDYWGQGTLITVSSGTGGSGGTGSGTGGSTQSVLTQPPSVSAAPGQKVTISCSGTSSNIGDNYVSWYQHLPGTAPKLLIYDNNKRPSGIPDRFSGSKSGTSATLGVTGLQTGDEADYYCGTWDSSLTAVVFGGGTKLTVLG
B3: SC04-325 (scFv)
scFv: QMQLVQSGAEVKKPGSSVKVSCKASGDTFSSYAISWVRQAPGQGLEWMGGIFGTASYAQKFQGRVTITADESTSTAYMELSSLRSEDTAVYYCARGGMATTPGLDYWGQGTLVTVSSGTGGSGGTGSGTGGSTDIQLTQSPDSLAVSLGERATINCKSSQSVLYSSNNKNYLAWYQQKPGQPPKLLIYWASTRESGVPDRFSGSGSGTDFTLTISSLQAEDVAVYYCQQYYSTPLTFGQGTKVEIKR
B4: SC04-353 (scFv)
scFv: EVQLVQSGGGVVQPGRSLRLSCAASGFTFSNYAMHWVRQAPGKGLEWVAVISYDGGNKYYADSVKGRFTMSRDNSKNTLYLQMNSLRAEDTAVYYCARDFWSGYSMVDSYYYYMDVWGKGTTVTVSSGTGGSGGTGSGTGGSTETTLTQSPGTLSLSPGERATLSCRASQSVSNTFLAWYQQKPGQAPRLLIYGASSRATGIPDRFSGSGSGTDFTLTISRLEPEDFAAYYCQQYGSSLTFGPGTKVDIKR
B5: SC04-271 (scFv)
scFv: EVQLVETGAEVKKPGESLRISCKGSGYTFNNYWIGWVRQMPGKGLEWMGIIYPGDSDTRYSPSVQGHVTISADKSINTAYLQWSSLKASDTAVYYCARRPGYDYGFYYFDYWGQGTLVTVSSGTGGSGGTGSGTGGSTQSALTQPRSVSGSPGQSVTISCTGTSSDVGGYNYVSWYQHHPGKAPKLMIYDVSNRPLGVSNRFSGSKSGNTASLTISGLQAEDEADYYCSSYTSSSTYVFGTGTHLTVLS
B6: SC04-361 (scFv)
scFv: EVQLVQSGAEVKKPGESLKISCKASGFSFSTYWIGWVRQMPGKGLEWMGIIYPADSDTRYSPSFQGQVTISADKSISTAYLQWSSLKASDTAMYYCARLRGPYYDFWNGYRETHDAFNVWGQGTMVTVSSGTGGSGGTGSGTGGSTDVVMTQSPDSLAVSLGERATINCKSSQNILDNSDNKNFLAWYQQKPGQPPKLLIYWASARESGVPDRFSGSGSGTDFTLTISSLQAEDVALYYCQQYYNTPITFGQGTRLEIKR
B7: SC04-374 (scFv)
scFv: QVTLKESGPTLVKPTQTLTLTCTFSGFSLSTSGVGVGWIRQPPGKALEWLAVIYWNDDKLYRPSLKSRLTITKDTSKNQVVLTMTKMDPVDTATYYCAHRHRYYDISGYYRLFSDAFDIWGQGTMVTVSSGTGGSGGTGSGTGGSTQSVVTQPPSVSGAPGQRVTISCTGSSSNIGAGYDVHWYQQLPGTAPKLLIYGNSNRPSGVPDRFSGSKSGTSASLAITGLQAEDEADYYCQSYDSSLSGSVFGGGTKLTVLG
B8: SC04-283 (scFv)
scFv: EVQLVQSGAEVKKSGESLKISCKGSGYTFNTYWIGWVRQMPGKGLEWMGIIYPGDSDTIYSPSFQGQVTISADKSISTAYLQWSSLKASDSAMYYCARLTFRRGYSGSDSFLPPGDFDYWGQGTLVTVSSGTGGSGGTGSGTGGSTDIQMTQSPSTLSASVGDRVTITCRASQSISSWLAWYQQKPGKAPNLLIYAASSLQSGVPSRFSGSGSGTDFTLTISSLQPDDSATYYCQQYNTYPLTFGGGTKVEIKR
B9: SC04-289 (scFv)
scFv: QMQLVQSGAEVKKPGESLRISCKGSGYSFTSNWITWVRQMPGKGLEWMGRIDPSDSYTNYSPSFQGHVTISADKSISTAYLQWSSLKASDTAMYYCARDVVGVGASDYYYYMDVWGKGTTVTVSSGTGGSGGTGSGTGGSTEIVLTQSPGTLSLSPGETATLSCRTSQSVSSSYLGWYQQKPGQAPRLLIYGASIRATGIPARFSGSGSGTEFTLTIDSLQSEDFAVYYCQQYNNWPPITFGQGTRLEIKR

Legend:
[1] = target: T1, West Nile virus strain USA99b (strain 385-99), whole virus (West Nile virus strain 385-99 (USA99b)); assay: phage ELISA on coated whole inactivated WNV
T1 construct: mature

[2] = target: T2, recombinantly expressed purified soluble WNV E protein (truncated form, strain 382-99) (West Nile virus strain 382-99, UniProt Q9Q6P4 291-696); assay: phage ELISA on coated recombinant soluble WNV E protein
T2 construct: also called recombinant WNV-E protein; truncated E protein
T2 sequence: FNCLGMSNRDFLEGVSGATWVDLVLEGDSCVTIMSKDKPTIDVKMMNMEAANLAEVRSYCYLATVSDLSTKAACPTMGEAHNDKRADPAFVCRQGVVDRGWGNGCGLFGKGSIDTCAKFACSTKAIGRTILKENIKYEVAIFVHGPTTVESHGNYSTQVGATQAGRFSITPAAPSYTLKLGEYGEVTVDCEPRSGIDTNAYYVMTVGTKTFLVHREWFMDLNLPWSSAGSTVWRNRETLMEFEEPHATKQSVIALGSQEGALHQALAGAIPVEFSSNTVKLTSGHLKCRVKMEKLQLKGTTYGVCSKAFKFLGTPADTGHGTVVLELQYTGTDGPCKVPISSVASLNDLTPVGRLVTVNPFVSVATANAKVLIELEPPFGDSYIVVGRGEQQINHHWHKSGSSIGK

Binder	OD 492 nm [1] [OD]	OD 492 nm [2] [OD]
B1	1.07	0.072
B2	1.04	1.54
B3		1.4
B4		0.099
B5	0.984	0.608
B6		0.076
B7		1.36
B8	1.21	0.074
B9	0.759	1.39
